Tests used:
MORC2 alanine mutant = target: T1, MORC2 alanine mutant (Homo sapiens, UniProt Q9Y6X9 1-1032, K704A;R707A;K713A;K716A;K721A;K722A;R754A;R755A;K756A;R758A;K760A;R761A); assay: fluorescence anisotropy; apo; FA/EMSA: 50 mM NaCl, 3 mM MgCl2, 20 mM Na-HEPES pH 7.4, 1 mM TCEP, 10% glycerol, 0.025 mM ZnCl2, 50 ug/ml BSA, room temperature; 1 nM nucleic acid (FA) or 20 nM DNA (EMSA); settings: protein: recombinant; tags: tag removed by TEV; chain copies: 2; label: 5'-6-FAM; blunt
T1 sequence: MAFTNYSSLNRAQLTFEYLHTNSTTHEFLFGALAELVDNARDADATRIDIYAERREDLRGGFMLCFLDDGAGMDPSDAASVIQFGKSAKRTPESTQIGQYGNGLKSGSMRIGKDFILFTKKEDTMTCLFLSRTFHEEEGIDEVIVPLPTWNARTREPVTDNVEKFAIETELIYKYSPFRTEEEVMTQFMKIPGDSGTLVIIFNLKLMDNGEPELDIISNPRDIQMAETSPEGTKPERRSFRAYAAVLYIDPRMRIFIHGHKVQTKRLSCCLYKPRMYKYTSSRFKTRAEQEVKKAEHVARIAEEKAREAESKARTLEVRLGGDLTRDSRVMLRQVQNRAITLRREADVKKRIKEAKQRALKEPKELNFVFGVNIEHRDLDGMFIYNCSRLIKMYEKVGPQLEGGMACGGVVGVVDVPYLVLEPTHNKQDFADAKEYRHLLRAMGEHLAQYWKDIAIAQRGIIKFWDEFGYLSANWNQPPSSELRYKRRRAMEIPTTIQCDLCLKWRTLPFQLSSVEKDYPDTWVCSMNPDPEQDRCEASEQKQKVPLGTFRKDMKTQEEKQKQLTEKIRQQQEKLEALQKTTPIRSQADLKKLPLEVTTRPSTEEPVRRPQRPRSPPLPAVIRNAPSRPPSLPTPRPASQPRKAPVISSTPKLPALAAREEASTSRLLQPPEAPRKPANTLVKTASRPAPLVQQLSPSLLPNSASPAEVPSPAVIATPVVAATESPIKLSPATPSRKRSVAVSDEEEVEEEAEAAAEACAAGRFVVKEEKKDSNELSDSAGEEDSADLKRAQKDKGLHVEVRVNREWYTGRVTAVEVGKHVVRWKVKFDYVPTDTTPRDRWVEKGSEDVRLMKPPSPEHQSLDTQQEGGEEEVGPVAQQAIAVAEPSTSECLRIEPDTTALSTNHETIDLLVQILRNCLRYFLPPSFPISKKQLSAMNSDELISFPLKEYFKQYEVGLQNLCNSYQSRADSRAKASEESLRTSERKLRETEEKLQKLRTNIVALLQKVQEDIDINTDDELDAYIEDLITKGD

MORC2 aspartate mutant = target: T2, MORC2 aspartate mutant (Homo sapiens, UniProt Q9Y6X9 1-1032, K704D;R707D;K713D;K716D;K721D;K722D;R754D;R755D;K756D;R758D;K760D;R761D); assay: as above; settings: protein: recombinant; tags: tag removed by TEV; chain copies: 2; label: 5'-6-FAM; blunt
T2 sequence: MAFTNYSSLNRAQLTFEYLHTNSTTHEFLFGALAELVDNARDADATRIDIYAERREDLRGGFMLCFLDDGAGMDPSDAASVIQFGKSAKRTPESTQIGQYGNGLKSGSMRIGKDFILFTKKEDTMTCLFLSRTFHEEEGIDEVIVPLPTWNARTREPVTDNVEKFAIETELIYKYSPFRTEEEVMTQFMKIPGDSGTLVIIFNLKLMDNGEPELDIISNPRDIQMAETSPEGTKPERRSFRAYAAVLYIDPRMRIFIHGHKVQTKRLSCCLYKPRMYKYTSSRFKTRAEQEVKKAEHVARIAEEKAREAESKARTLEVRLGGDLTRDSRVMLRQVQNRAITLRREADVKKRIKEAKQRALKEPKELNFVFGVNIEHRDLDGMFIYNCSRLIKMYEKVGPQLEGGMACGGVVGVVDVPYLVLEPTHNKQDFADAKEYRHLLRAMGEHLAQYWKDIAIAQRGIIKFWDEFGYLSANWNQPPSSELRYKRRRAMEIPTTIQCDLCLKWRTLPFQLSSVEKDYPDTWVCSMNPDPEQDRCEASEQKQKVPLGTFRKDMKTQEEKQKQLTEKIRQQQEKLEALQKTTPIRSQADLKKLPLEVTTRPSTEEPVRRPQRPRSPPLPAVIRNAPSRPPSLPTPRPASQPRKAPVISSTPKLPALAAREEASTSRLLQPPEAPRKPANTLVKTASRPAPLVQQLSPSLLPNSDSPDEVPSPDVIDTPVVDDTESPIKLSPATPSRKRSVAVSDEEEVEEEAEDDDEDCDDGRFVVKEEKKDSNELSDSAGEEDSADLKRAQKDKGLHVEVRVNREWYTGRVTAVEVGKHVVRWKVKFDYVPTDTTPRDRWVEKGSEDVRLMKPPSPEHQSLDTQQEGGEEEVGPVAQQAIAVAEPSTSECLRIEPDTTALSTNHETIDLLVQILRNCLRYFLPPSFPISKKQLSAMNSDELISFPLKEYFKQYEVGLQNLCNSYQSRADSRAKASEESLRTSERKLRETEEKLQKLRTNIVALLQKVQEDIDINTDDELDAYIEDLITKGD

B1: Random 35mer dsDNA (dsDNA)
DNA 1: ATAGGGTCCATCAGAATTCGGATGAACTCGGTGTG
DNA 2: CACACCGAGTTCATCCGAATTCTGATGGACCCTAT
Kd (MORC2 alanine mutant): 350 ± 60 nM
Kd (MORC2 aspartate mutant): 380 ± 120 nM
